Laboratory results from article PMC2908537.

Legend:
Experiment in all cases: SPR; WT or point-mutant CRT immobilised on a biosensor chip at about 500 RU by primary amine coupling, SE 15mer peptides run as analyte; read-out RU, mean ± SEM; 25°C, 10 mM HEPES pH 7.4, 50 mM KCl, 0.5 mM CaCl2, 100 µM ZnCl2, 0.005% surfactant P-20, flow 10 µl/min
[1] = molecular target: CRT E223A mutant, 6xHis-tagged (not stated (rabbit or mouse cDNA cloned)) (UniProt P14211)
[2] = molecular target: CRT H224A mutant, 6xHis-tagged (not stated (rabbit or mouse cDNA cloned)) (UniProt P14211)
[3] = molecular target: CRT D220A mutant, 6xHis-tagged (not stated (rabbit or mouse cDNA cloned)) (UniProt P14211)
[4] = molecular target: CRT Y254A mutant, 6xHis-tagged (not stated (rabbit or mouse cDNA cloned)) (UniProt P14211)
[5] = molecular target: CRT N279A mutant, 6xHis-tagged (not stated (rabbit or mouse cDNA cloned)) (UniProt P14211)
[6] = molecular target: CRT E217A mutant, 6xHis-tagged (not stated (rabbit or mouse cDNA cloned)) (UniProt P14211)
[7] = molecular target: wild-type CRT, 6xHis-tagged, from the pBAD vector (not stated (rabbit or mouse cDNA cloned)) (UniProt P14211)

RU [1] [RU] | RU [2] [RU] | RU [3] [RU] | RU [4] [RU] | RU [5] [RU] | RU [6] [RU] | RU [7] [RU] | Substance
56.7 | 68.2 | 70.1 | 66.5 | 106 | 50.9 | 71.2 | SE-expressing 15mer synthetic peptide 65-79*0401
84.6 | 128 | 120 | 113 | 145 | 106 | 128 | SE-expressing 15mer synthetic peptide 65-79*0404
